Columns and labels:
[1] = biological target: T1, Met-PA (extracellular region of a human Met receptor with a PA tag at the C terminal) (human, UniProt P08581 25-932); test: sandwich ELISA type test: Met-PA on plate, Fab supernatant, detection with Nrp1ec-AP, A405
T1 construct: extracellular domain; Soluble receptor fragment expressed in Expi293F cells; also called second target antigen; not shown: PA tag

[2] = biological target: T2, plexin B1-PA (extracellular region of human plexin B1 with a PA tag at the C terminal) (human, UniProt O43157 20-1490); test: sandwich ELISA type test: plexin B1-PA on plate, Fab supernatant, detection with Nrp1ec-AP, A405
T2 construct: extracellular domain; Soluble receptor fragment expressed in Expi293F cells; Culture supernatant in the pulldown tests, purified for the sandwich tests; also called hPlexB1; plexin B1-BA; not shown: PA tag (Wako Pure Chemical Industries)
T2 sequence (looked up): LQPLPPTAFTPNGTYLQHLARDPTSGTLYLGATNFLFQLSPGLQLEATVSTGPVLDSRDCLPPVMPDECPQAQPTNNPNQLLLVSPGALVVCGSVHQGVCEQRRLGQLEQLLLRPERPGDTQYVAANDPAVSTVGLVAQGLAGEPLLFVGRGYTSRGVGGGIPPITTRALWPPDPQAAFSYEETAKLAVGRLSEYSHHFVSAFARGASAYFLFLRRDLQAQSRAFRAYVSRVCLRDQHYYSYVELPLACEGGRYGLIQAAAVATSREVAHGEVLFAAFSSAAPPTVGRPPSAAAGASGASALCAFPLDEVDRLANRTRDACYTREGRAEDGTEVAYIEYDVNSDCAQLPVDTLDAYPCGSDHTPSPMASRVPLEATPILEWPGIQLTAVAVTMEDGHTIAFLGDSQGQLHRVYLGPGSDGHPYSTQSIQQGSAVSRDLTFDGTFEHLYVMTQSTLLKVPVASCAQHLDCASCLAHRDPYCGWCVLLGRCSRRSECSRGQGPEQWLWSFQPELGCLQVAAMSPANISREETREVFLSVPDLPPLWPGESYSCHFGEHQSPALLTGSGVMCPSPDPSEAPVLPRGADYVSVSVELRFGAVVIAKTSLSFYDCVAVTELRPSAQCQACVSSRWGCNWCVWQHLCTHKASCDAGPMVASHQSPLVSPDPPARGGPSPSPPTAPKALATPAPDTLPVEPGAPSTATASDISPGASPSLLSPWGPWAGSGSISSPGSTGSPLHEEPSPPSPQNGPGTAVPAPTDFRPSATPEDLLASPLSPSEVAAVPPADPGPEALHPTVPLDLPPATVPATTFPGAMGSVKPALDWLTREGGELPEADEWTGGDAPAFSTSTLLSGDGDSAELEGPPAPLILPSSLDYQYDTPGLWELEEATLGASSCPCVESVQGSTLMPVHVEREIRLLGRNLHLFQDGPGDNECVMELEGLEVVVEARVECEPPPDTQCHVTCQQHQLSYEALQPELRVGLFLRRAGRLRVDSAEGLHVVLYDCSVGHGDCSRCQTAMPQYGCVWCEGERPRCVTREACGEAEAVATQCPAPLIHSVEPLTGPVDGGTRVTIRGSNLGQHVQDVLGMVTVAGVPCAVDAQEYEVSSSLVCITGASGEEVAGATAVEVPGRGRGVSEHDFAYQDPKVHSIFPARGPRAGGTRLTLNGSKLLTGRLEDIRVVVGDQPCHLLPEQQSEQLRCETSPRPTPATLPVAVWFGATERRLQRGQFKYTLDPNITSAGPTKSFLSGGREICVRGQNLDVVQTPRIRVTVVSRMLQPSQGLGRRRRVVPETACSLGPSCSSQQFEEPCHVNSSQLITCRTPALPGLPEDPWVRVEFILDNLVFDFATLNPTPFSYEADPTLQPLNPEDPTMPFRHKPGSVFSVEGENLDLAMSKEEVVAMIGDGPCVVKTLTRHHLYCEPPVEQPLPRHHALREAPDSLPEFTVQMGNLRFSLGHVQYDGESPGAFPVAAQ

T1 sequence (P08581 25-932): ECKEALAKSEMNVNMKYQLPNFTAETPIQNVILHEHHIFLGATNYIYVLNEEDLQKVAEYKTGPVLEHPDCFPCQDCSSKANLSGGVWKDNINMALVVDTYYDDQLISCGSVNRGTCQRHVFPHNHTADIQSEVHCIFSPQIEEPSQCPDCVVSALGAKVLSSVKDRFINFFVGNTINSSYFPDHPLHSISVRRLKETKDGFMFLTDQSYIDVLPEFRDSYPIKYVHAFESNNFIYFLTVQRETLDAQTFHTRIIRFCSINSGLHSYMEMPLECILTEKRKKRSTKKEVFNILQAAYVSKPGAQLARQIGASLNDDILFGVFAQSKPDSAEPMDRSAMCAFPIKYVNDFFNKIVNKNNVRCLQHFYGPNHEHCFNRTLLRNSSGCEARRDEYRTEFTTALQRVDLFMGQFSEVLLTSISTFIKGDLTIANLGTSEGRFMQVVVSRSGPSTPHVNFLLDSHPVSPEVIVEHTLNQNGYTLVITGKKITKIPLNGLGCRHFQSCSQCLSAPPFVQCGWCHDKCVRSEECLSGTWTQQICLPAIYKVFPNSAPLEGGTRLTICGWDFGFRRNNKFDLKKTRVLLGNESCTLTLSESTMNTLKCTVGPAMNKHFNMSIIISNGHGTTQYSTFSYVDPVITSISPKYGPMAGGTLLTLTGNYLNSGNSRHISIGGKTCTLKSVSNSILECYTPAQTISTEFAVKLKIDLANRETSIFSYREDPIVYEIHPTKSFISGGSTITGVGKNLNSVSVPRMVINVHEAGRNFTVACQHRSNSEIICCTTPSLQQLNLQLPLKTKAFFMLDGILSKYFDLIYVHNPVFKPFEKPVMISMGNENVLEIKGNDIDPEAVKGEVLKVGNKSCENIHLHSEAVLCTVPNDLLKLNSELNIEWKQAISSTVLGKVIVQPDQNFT

binding result [1]: no binding
binding result [2]: no binding
B1: N1_Fab having no peptide inserted therein (Fab, V domains shown)
VH: EVQLVESGGGLVQPGGSLRLSCAASGFSFSSEPISWVRQAPGKGLEWVSSITGKNGYTYYADSVKGRFTISADTSKNTAYLQMNSLRAEDTAVYYCARWGKKVYGMDVWGQGTLVTVSS
VL: DIQMTQSPSSLSASVGDRVTITCRASQSISSYLAWYQQKPGKAPKLLIYGASSRASGVPSRFSGSGSGTDFTLTISSLQPEDFATYYCQQYMSVPITFGQGTKVEIKR
notes: Unfused control Fab, used as culture supernatant; also called Fab of human IgG1 monoclonal antibody N1 (clone name YW64.3) against neuropilin 1

Reference: patent US20210221849A1 (MIRABIOLOGICS, published 2021)
